Results taken from US20200239578A1 (Eli Lilly, published 2020).

T1: murine (Balbc) BTLA protein (immobilised on the Biacore chip) (mouse (Balbc), UniProt Q7TSA3 30-183, limits assumed)
T1 construct: also called Mouse Balbc BTLA
T1 chain: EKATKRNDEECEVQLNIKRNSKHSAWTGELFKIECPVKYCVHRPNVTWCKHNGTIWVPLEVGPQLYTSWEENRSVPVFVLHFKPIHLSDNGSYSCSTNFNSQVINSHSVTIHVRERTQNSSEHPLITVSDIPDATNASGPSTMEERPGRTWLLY

T2: cynomolgus monkey BTLA protein (immobilised on the Biacore chip) (cynomolgus monkey, limits assumed)
T2 construct: also called Cyno BTLA
T2 chain: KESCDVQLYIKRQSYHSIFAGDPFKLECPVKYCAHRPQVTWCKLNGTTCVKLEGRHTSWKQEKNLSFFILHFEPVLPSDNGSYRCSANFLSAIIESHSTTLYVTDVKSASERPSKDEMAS

T3: rat BTLA protein (immobilised on the Biacore chip) (rat, UniProt Q6PNM1 30-183, limits assumed)
T3 sequence (looked up): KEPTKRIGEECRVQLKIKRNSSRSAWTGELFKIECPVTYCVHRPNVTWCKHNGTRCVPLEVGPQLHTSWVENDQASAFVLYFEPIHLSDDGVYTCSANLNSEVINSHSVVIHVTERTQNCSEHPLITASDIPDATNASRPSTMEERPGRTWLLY

T4: human BTLA protein (immobilised on the Biacore chip) (human, UniProt Q7Z6A9 31-150, limits assumed)
T4 construct: also called B and T Lymphocyte Attenuator; CD272
T4 sequence: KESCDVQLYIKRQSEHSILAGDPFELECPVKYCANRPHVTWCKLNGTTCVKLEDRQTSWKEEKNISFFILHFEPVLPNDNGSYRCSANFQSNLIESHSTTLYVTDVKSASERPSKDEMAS

T5: murine (C57BL6) BTLA protein (immobilised on the Biacore chip) (mouse (C57BL6), UniProt Q7TSA3 30-183, limits assumed)
T5 construct: also called Mouse C57BL6 BTLA
T5 chain: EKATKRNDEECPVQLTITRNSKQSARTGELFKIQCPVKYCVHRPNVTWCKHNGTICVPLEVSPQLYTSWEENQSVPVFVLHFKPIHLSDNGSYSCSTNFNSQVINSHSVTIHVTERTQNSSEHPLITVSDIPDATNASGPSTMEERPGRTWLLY

T6: cynomolgus monkey BTLA on cyno PBMCs (cynomolgus monkey, UniProt Q7Z6A9 31-289 (human entry))
T6 construct: Endogenous BTLA on primary cells; also called cynomolgus monkey BTLA-expressing cells
T6 chain: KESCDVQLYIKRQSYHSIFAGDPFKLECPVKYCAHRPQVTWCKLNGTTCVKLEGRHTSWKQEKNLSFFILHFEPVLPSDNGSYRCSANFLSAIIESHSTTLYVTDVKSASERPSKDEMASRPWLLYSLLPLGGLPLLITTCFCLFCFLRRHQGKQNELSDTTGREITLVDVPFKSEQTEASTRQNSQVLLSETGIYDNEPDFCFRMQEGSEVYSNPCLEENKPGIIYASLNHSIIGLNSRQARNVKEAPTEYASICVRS

T7: mouse BTLA on splenocytes of C57BL6 mice (mouse (C57BL6), UniProt Q7TSA3 30-306)
T7 construct: Endogenous BTLA on primary cells; also called mouse BTLA-expressing cells
T7 sequence: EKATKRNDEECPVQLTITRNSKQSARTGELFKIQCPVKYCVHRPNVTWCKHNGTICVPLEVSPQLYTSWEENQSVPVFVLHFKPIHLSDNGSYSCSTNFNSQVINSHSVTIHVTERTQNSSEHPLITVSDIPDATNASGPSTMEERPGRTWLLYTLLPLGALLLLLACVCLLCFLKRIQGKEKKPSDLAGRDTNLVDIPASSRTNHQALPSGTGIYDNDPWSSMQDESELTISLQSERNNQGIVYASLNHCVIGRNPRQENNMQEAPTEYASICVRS


What was measured:
[1] = biological target: T1, murine (Balbc) BTLA protein …; assay: SPR (Biacore 3000), BTLA amine-coupled to the chip, antibody flowed, 25 C, 1:1 Langmuir fit
Procedure: (§1) The binding affinity and kinetics of the BTLA agonist antibodies of the present invention (22B3, 23C8, and 25F7) to BTLA are measured by surface plasmon resonance using Biacore® 3000 (GE Healthcare). […] The experiments are carried out at 25° C. in HBS-EP buffer (GE Healthcare BR100669; 10 mM HEPES, 150 mM NaCl, 3 mM EDTA, 0.05% surfactant P20, pH 7.4). For each cycle, 250 μL antibody sample is flowed through flow cell 1 and 2 at 50 μ1/min, and then dissociated for 10 minutes. The chip surface is regenerated with 5 μL injection of glycine buffer at pH 1.5 at […] flow rate. The data are fit to a 1:1 Langmiur binding model to derive kₒₙ, k_{off,} and to calculate KD. Data shown below are the average of three experiments for human, cyno, rat and murine for 22B3.

[2] = biological target: T2, cynomolgus monkey BTLA protein …; assay: as above
Procedure: as §1

[3] = biological target: T3, rat BTLA protein (immobilised on the …); assay: as above
Procedure: as §1

[4] = biological target: T4, human BTLA protein (immobilised on the …); assay: as above
Procedure: as §1

[5] = biological target: T5, murine (C57BL6) BTLA protein …; assay: as above
Procedure: as §1

[6] = biological target: T6, cynomolgus monkey BTLA on cyno PBMCs; assay: flow cytometry (FACS) on primary cells
Procedure: (§2) Isolated primary cells are quantified using a Countess cell counter, and resuspended at 2×10⁶ cells per ml in FACS buffer. Flow cytometry experiments is performed the same day as cell isolation by plating 50 μl (˜0.1×10⁶) cells into a 96 well plate (Greiner #650101). Non-specific antibody binding is prevented by adding 1 μl Fc block (for example, from BD #553142) for 15 minutes at 4 ° C. without washing.
(§3) BTLA antibody binding is tested at various concentrations, by serial dilution in FACS buffer. For example, a purified antibody and controls starting at different concentrations are first diluted to 30 μg/mL and serial 1:3 dilutions of the starting material is performed for a total of 10 titrations (plus untreated control). Antibody titrations are incubated with cells for 20 minutes at 4° C., and washed with FACS buffer prior to stain. Cells are stained using fluorochrome-conjugated antibodies to identify specific cell types (eg. CD19 B cells, CD4 T cells or CD8 T cells) or using a secondary antibody to identify the presence or absence of antibody binding to that subset. Staining is performed for 20 minutes at 4° C. and washed 3 times with FACS buffer prior to analysis on a flow cytometer. Results are analyzed using standard FACS analysis software (eg. FACSDiva) and reported as mean fluorescent intensity of the secondary antibody for each titration. A positive result, which indicates binding, is determined by mean fluorescent intensity staining above background.

[7] = biological target: T7, mouse BTLA on splenocytes of C57BL6 mice; assay: flow cytometry (FACS) on primary cells
Procedure: as §2, §3

[8] = biological target: human BTLA on human cells (PBMCs, Ramos.2G6.4C10 B cell line, primary B cells) (human, UniProt Q7Z6A9 31-289); assay: cell-based or functional assay
[9] = biological target: T1, murine (Balbc) BTLA protein …; assay: SPR (Biacore 3000), BTLA amine-coupled to the chip, antibody flowed
Procedure: as §1

[10] = biological target: T5, murine (C57BL6) BTLA protein …; assay: as above
Procedure: as §1

Row | Binder | Kd [2] | koff [2] | kon [2] | Kd [4] | koff [4] | kon [4] | Kd [5] | koff [5] | kon [5] | binding result [6] | binding result [7] | IC50 of inhibition of human primary B cell proliferation ([3H]-thymidine) [8] | fold increase in tyrosine phosphorylation of BTLA over background compared to negative control (Ramos B cell line, MSD) [8] | further results
1 | Antibody 22B3 (antibody, human IgG4 S228P, kappa, F234A L235A, V domains shown, also called humanized 22B3; BTLA agonist antibody 22B3) VH: QVQLVQSGAEVKKPGASVKVSCKASGFSLSSYGVSWVRQAPGQGLEWMGAISYDGITYYASWAKSRVTMTRDTSTSTVYMELSSLRSEDTAVYYCARGDYYDDYVYVYALDIWGQGTLVTVSS VL: EIVLTQSPGTLSLSPGERATLSCQASQSISTALAWYQQKPGQAPRLLIYAASTLASGIPDRFSGSGSGTDFTLTISRLEPEDFAVYYCQQGYSSSNLDNVFGGGTKVEIKR | 0.27 nM | 0.000647 s⁻¹ | 2.45e+06 M⁻¹ s⁻¹ | 0.365 nM | 0.00219 s⁻¹ | 5.87e+06 M⁻¹ s⁻¹ | 147 nM | 0.265 s⁻¹ | 1.89e+06 M⁻¹ s⁻¹ | binds | binds | 0.32 nM | 2.41 fold | Kd [1]: 32.5 nM; koff [1]: 0.0858 s⁻¹; kon [1]: 2.6e+06 M⁻¹ s⁻¹; Kd [3]: 24.1 nM; koff [3]: 0.0462 s⁻¹; kon [3]: 2.1e+06 M⁻¹ s⁻¹; IC50 of inhibition of human primary B cell proliferation ([3H]-thymidine), similar experiment beside Mab8D5 [8]: 0.32 nM
2 | Antibody 25F7 (antibody, human IgG4 S228P, kappa, F234A L235A, V domains shown, also called BTLA agonist antibody 25F7) VH: QVQLVQSGAEVKKPGASVKVSCKASGFSLSTYAMNWVRQAPGQGLEWMGIISDDGTTYYATWAKGRVTMTRDTSTSTVYMELSSLRSEDTAVYYCARDAGAGGVQDYLTLWGQGTLVTVSS VL: DIVMTQSPDSLAVSLGERATINCQASENIYNFLAWYQQKPGQPPKLLIYSASTLASGVPDRFSGSGSGTDFTLTISSLQAEDVAVYYCQQGSSNSNIDNPFGGGTKVEIKR | – | – | – | 206 nM | 0.0142 s⁻¹ | 68600 M⁻¹ s⁻¹ | 4.63 nM | 0.00035 s⁻¹ | 77000 M⁻¹ s⁻¹ | binds | binds | 0.17 nM | 1.47 fold | –
3 | Antibody 23C8 (antibody, human IgG4 S228P, kappa, F234A L235A, V domains shown, also called BTLA agonist antibody 23C8) VH: EVQLVESGGGLVQPGGSLRLSCAASGFDISKYNIQWVRQAPGKGLEWVGFINYGGSAYYASRAKGRFTISRDDSKNSLYLQMNSLKTEDTAVYYCARGLSNSDLWGQGTLVTVSS VL: DIQMTQSPSSLSASVGDRVTITCQASQSISSWLSWYQQKPGKAPKLLIYRASTLASGVPSRFSGSGSGTDFTFTISSLQPEDIATYYCQSTYGGVVGSTSDDNPFGGGTKVEIKR | 35.4 nM | 0.00309 s⁻¹ | 87100 M⁻¹ s⁻¹ | 1.93 nM | 0.000293 s⁻¹ | 159000 M⁻¹ s⁻¹ | – | – | – | binds | – | 0.14 nM | – | binding result [9]: no binding; binding result [10]: no binding
